This assay concerns the target MoKat2 tagged with FLAG or GFP (MoKat2-FLAG and MoKat2-GFP) (Magnaporthe oryzae). In words: native gel or EMSA.

As to “MoKat2 tagged with FLAG or GFP (MoKat2-FLAG and MoKat2-GFP) (enzyme)”, the stoichiometry N came to 2.

As a reminder, the stoichiometry N is a count of units in the complex or per binding partner.
